This data set deals with T1, His6-PhoP (Actinosynnema pretiosum X47 (derived from A. pretiosum subsp. auranticum ATCC 31565)) (UniProt A0A290ZEW1).
T1 sequence: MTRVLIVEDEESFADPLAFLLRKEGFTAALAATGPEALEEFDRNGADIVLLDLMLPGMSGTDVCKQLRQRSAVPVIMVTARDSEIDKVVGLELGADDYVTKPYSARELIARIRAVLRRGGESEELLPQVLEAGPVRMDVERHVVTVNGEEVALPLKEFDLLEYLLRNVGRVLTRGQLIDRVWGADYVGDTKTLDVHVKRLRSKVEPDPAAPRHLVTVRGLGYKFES
Nature of the data set: EMSA. As to conditions: EMSA: 100 fmol biotin probe, binding buffer (composition not given), poly(dI-dC), 20-30 min at room temperature, 8% native PAGE; protein dialyzed in 50 mM ….

As for “GTGACTGGAGTTCCTTTTCGCGCAACAGCCGGTACCGGGTTCAGGTTAAACCGAGCAAGATAGCCCTAGAGGGGACACCAGCGGATACAGAGAGCAACAAAACAGGCACGTACAGAAGTCTTGTTAGCCCAGAAGGGTGATAAACGCCCCGATGTCGAGCGTTCCTCGCCACAGACACGTCACATCTGGCGAACTCGGTCGTTTGCTAGGCCGGGAAGGGAGAAGAGGGTAACGACGAGTCGTGTAGGGAAAGA (double strand) [ssgB promoter probe]”, the binding entry is “binds”. Consider “TCTTTCCCTACACGACCGGCTTCCGTCCTTGGATGTCGGGCATCGGGCCCGTCCGTGGGTCCGTGGCGTTACAAACGGCAGTGCGCCTTCACTCCTGAGGGGGAACGAAGGGCGGCCAGGGTGGAGAAGGCCCGGCCGCCCGTCACCCGTAAGGAACTCCAGTCAC (double strand) [swrD promoter probe]”, for which the binding entry is recorded as “no binding”.

In the case of “GTGACTGGAGTTCCTTACCCCGATCCGGTGACCGGGGCCGGCGGCCCAGCCCCGGTCCCGCGATCCGCGAAAGCAGCCGCGAACCGCCGCTGACCTGGTCGAACGGCCCGCTGGAAGATCGCTTGAGCACCGCCGACGACGAGCGTCGACGCCCCCGCCCCGCAGCGGGCGGGGGCAGTCCCCCGTTGGAGTGCTCAGCTCCCCCCGGCGACGGCCGTACTAGGCGGCGGTCGTGTAGGGAAAGA (double strand) [fliM promoter probe]”, the binding entry was “no binding”.

The values above are taken from article PMC9019756.
